Columns and labels:
p2-delORF2-URA3 = experiment: Complementation of native TP-DNAP2 deletion (p2-delORF2-URA3 replication in trans); type: cell-based, S. cerevisiae
From the text: First, TP-DNAP2, which is ORF2 of p2, was deleted by homologous recombination of a synthetic cassette encoding URA3. Since p2 is a multi-copy plasmid, the resulting strain (GA-Y069) harbored a mixture of the parental wt p2 and the recombinant p2 with ORF2 deleted (p2-delORF2-URA3), along with unaltered p1. In this strain, both the wt p2 and recombinant p2-delORF2-URA3 plasmids rely on TP-DNAP2 encoded on the parental wt p2 plasmid for replication. Thus, loss of wt p2 should disable replication of p2-delORF2-URA3. […] Next, the same experiment was repeated in the presence of a codon-optimized TP-DNAP2 expressed in trans from a standard yeast CEN6/ARS4 nuclear plasmid (pGA55-reTP-DNAP2). […] Therefore, p2-derived plasmids can be replicated by TP-DNAP2 encoded on a standard nuclear plasmid, simplifying the characterization of p2 replication by error-prone TP-DNAP2 variants.

p2-encoded leu2* = experiment: p2 leu2* fluctuation tests in GA-Y021 (p2 mutation rate reporter strain); type: cell-based, S. cerevisiae
Summary of the method: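 Yeast GA-Y021 carrying wt TP-DNAP2 plus variants in trans; replicate cultures grown 48 h at 30° C in pH 5.8 SC dropout, spot-plated on leucine-free medium, colonies counted after 5 days. m by p0 method (six replicates) or Ma-Sandri-Sarkar MLE (36–48 replicates), normalized to titer, p2 copy number (mKate2) and 2.33 bp target.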

B1: Y424Q: TP-DNAP2 variant (protein, listed as Kluyveromyces lactis)
chain: MNDELAFLNSQIDDYSDDIEFLRTEVFRINRYSKSIYSLMKNSSKEAIKETIEFNKYGQEIHSKIKEKEISLIEAIKLMEKKYKYLRSLNKTKDKSKKKKIHTKDIETLKTIYKTKADFDIRNFKNAETFTYENYSLLIPSEKELIDLIPEIEEDYSYYFYVSLTITGPTIFGGVTRKVPIIDTYGDINKDFYNKIKENITKVLDRVPFYEEKESEIICKKVLITLTVNKWESIDKWYKNVKSKSKKFKDFTLFLASDTSKNCVQQCVEYLGGKWNTNYSLEKMIPQQKIVTYIPLLMDIQYVQSMEDLISDFDEPNTDCKNIARLLKWNGHMGVITKIDKDVKINRIQRKRIIDVENKEVKEVFFDIESFSDETKHQIPYLICWSYLGELYYRTGKNCIKEFVEEILSYNVDIILYAWYGSGQDYQHVLPYMKSKCIKDKYIIKNNMITYGELYYENAIIYLKDPYLFILTSLDKASKAFNVINKGEFPHSIIHSWEDLNKILPNWVKIQKRMIEYKDDNKLNIYYKNIEIFENDRNYNTILENAIEYCKVDVLAMEKVWIKFKKLLEKNLNITVSVKTFTLSQLSMKIMESKLPKYVKLYVPTLEEYSKIRNAIYGGRVISKNGIYEENIVYADVVSLYPSAMKLLKHSYGKPKLVDYIDFEKHGIYRVTLLNKHDQEPKNYLNFVPRRINRKLTWEWFKIHEGWYHTYDLIIAKSEGFDIYCHEGFEYPEKDYIFNDFIDTLYSMKETHTACSCEEQPCPIRMVAKIALNGGGYGKFVQKPIDKEIYIVKRDVVAGECDKLQENENGEICIGKRLVKRPLFYNLDSENYDKMIIEKEDEPIYSTQCGISILSASRYRLYKLCKQFENIDIIYSDTDSIFVKQKSVDWELFKSKCGSELGQLDSTIDDTKNAIISKMYIGGAKMYAFEYLNNKNKLITKLHCKGVPNYMLSLNQFKYLMESPDNTIAYKFEIIRRKLVNVITKDLIKDIKQT
ability to complement deletion of native TP-DNAP2 and sustain p2-delORF2-URA3 replication (p2-delORF2-URA3): not active enough to fully complement a deletion of the native TP-DNAP2 | fold increase of p2 mutation rate (p2-encoded leu2*; GA-Y021, mutual orthogonality experiment, 48 replicates): 16 fold | Per-base substitution rate pf p2 (p2-encoded leu2*; TP-DNAP2 variant in trans, wt TP-DNAP2 in cis, 36 replicates, (95% C.I.)): 77.5 (56.9-100) ×10^−10 | Fold increase (p2-encoded leu2*; p2 substitution rate over no variant in trans): 13.0 | fold increase of p2 substitution mutation rate (p2-encoded leu2*; reconfirmation, 36 replicates): ~13 fold
